Columns and labels:
[1] = tested on: HeLa Kyoto; experiment: melting temperature (median over replicates), in situ; higher = more thermally stable
[2] = tested on: HeLa Kyoto; experiment: solubility in G1/S (NP-40 vs SDS abundance) (log2 ratio); higher = more soluble; details: cell cycle stage: G1/S
[3] = tested on: HeLa Kyoto; experiment: thermal stability score vs G1/S (z-score of summed log2 fold changes over temperatures); higher = more thermally stable than in G1/S
[4] = tested on: HeLa Kyoto; experiment: solubility change mitosis vs G1/S (difference of NP-40 vs SDS log2 ratios) (log2 ratio difference); higher = more soluble in mitosis
[5] = cell cycle stage: early G1 (4.5 h after nocodazole release)
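Wherever melting temperature (median over replicates), in situ is given: HeLa Kyoto cells synchronized by double thymidine or nocodazole block, proteins quantified by TMT10plex mass spectrometry, three independent biological replicates.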
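Wherever solubility change mitosis vs G1/S (difference of NP-40 vs SDS log2 ratios) is given: synchronized HeLa Kyoto cells (double thymidine block for G1/S, nocodazole release for mitosis), protein amounts in NP-40 versus SDS lysates quantified by mass spectrometry, three biological replicates.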
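Wherever solubility in G1/S (NP-40 vs SDS abundance) is given: HeLa Kyoto cells arrested at G1/S by double thymidine block, proteins quantified by TMT10plex mass spectrometry in mild NP-40 versus SDS extracts, three biological replicates.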
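Wherever thermal stability score vs G1/S (z-score of summed log2 fold changes over temperatures) is given: synchronized HeLa Kyoto cells, proteins quantified by TMT10plex mass spectrometry, three biological replicates, mitosis taken 0.5 h after nocodazole release, G1/S directly after double thymidine block.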

Sequence | melting temperature ([1]; cell cycle stage: G1/S) [°C] | melting temperature ([1]; cell cycle stage: mitosis) [°C] | solubility in G1/S (log2) [2] | thermal stability score [3, 5] | thermal stability score ([3]; cell cycle stage: mitosis) | solubility change mitosis (log2) [4]
MAALVVSGAAEQGGRDGPGRGRAPRGRVANQIPPEILKNPQLQAAIRVLPSNYNFEIPKTIWRIQQAQAKKVALQMPEGLLLFACTIVDILERFTEAEVMVMGDVTYGACCVDDFTARALGADFLVHYGHSCLIPMDTSAQDFRVLYVFVDIRIDTTHLLDSLRLTFPPATALALVSTIQFVSTLQAAAQELKAEYRVSVPQCKPLSPGEILGCTSPRLSKEVEAVVYLGDGRFHLESVMIANPNVPAYRYDPYSKVLSREHYDHQRMQAARQEAIATARSAKSWGLILGTLGRQGSPKILEHLESRLRALGLSFVRLLLSEIFPSKLSLLPEVDVWVQVACPRLSIDWGTAFPKPLLTPYEAAVALRDISWQQPYPMDFYAGSSLGPWTVNHGQDRRPHAPGRPARGKVQEGSARPPSAVACEDCSCRDEKVAPLAP [DPH1] | 53 | 53 | 0.145 | -0.776 | -1.19 | -0.202
MAAMAPGGSGSGGGVNPFLSDSDEDDDEVAATEERRAVLRLGAGSGLDPGSAGSLSPQDPVALGSSARPGLPGEASAAAVALGGTGETPARLSIDAIAAQLLRDQYLLTALELHTELLESGRELPRLRDYFSNPGNFERQSGTPPGMGAPGVPGAAGVGGAGGREPSTASGGGQLNRAGSISTLDSLDFARYSDDGNRETDEKVAVLEFELRKAKETIQALRANLTKAAEHEVPLQERKNYKSSPEIQEPIKPLEKRALNFLVNEFLLKNNYKLTSITFSDENDDQDFELWDDVGLNIPKPPDLLQLYRDFGNHQVTGKDLVDVASGVEEDELEALTPIISNLPPTLETPQPAENSMLVQKLEDKISLLNSEKWSLMEQIRRLKSEMDFLKNEHFAIPAVCDSVQPPLDQLPHKDSEDSGQHPDVNSSDKGKNTDIHLSISDEADSTIPKENSPNSFPRREREGMPPSSLSSKKTVHFDKPNRKLSPAFHQALLSFCRMSADSRLGYEVSRIADSEKSVMLMLGRCLPHIVPNVLLAKREELIPLILCTACLHPEPKERDQLLHILFNLIKRPDDEQRQMILTGCVAFARHVGPTRVEAELLPQCWEQINHKYPERRLLVAESCGALAPYLPKEIRSSLVLSMLQQMLMEDKADLVREAVIKSLGIIMGYIDDPDKYHQGFELLLSALGDPSERVVSATHQVFLPAYAAWTTELGNLQSHLILTLLNKIEKLLREGEHGLDEHKLHMYLSALQSLIPSLFALVLQNAPFSSKAKLHGEVPQIEVTRFPRPMSPLQDVSTIIGSREQLAVLLQLYDYQLEQEGTTGWESLLWVVNQLLPQLIEIVGKINVTSTACVHEFSRFFWRLCRTFGKIFTNTKVKPQFQEILRLSEENIDSSAGNGVLTKATVPIYATGVLTCYIQEEDRKLLVGFLEDVMTLLSLSHAPLDSLKASFVELGANPAYHELLLTVLWYGVVHTSALVRCTAARMFELTLRGMSEALVDKRVAPALVTLSSDPEFSVRIATIPAFGTIMETVIQRELLERVKMQLASFLEDPQYQDQHSLHTEIIKTFGRVGPNAEPRFRDEFVIPHLHKLALVNNLQIVDSKRLDIATHLFEAYSALSCCFISEDLMVNHFLPGLRCLRTDMEHLSPEHEVILSSMIKECEQKVENKTVQEPQGSMSIAASLVSEDTKTKFLNKMGQLTTSGAMLANVFQRKK [KIAA1468] | 50.8 | 51.1 | -0.0233 | -0.253 | -0.932 | -0.171
MAAPALRLCHIAFHVPAGQPLARNLQRLFGFQPLASREVDGWRQLALRSGDAVFLVNEGAGSGEPLYGLDPRHAVPSATNLCFDVADAGAATRELAALGCSVPVPPVRVRDAQGAATYAVVSSPAGILSLTLLERAGYRGPFLPGFRPVSSAPGPGWVSRVDHLTLACTPGSSPTLLRWFHDCLGFCHLPLSPGEDPELGLEMTAGFGLGGLRLTALQAQPGSIVPTLVLAESLPGATTRQDQVEQFLARHKGPGLQHVGLYTPNIVEATEGVATAGGQFLAPPGAYYQQPGKERQIRAAGHEPHLLARQGILLDGDKGKFLLQVFTKSLFTEDTFFLELIQRQGATGFGQGNIRALWQSVQEQSARSQEA [HPDL] | 53.9 | 52.8 | 0.23 | 1.41 | 0.476 | -0.0348
MAAPCEGQAFAVGVEKNWGAVVRSPEGTPQKIRQLIDEGIAPEEGGVDAKDTSATSQSVNGSPQAEQPSLESTSKEAFFSRVETFSSLKWAGKPFELSPLVCAKYGWVTVECDMLKCSSCQAFLCASLQPAFDFDRYKQRCAELKKALCTAHEKFCFWPDSPSPDRFGMLPLDEPAILVSEFLDRFQSLCHLDLQLPSLRPEDLKTMCLTEDKISLLLHLLEDELDHRTDERKTTIKLGSDIQVHVTACILSVCGWACSSSLESMQLSLITCSQCMRKVGLWGFQQIESSMTDLDASFGLTSSPIPGLEGRPERLPLVPESPRRMMTRSQDATFSPGSEQAEKSPGPIVSRTRSWDSSSPVDRPEPEAASPTTRTRPVTRSMGTGDTPGLEVPSSPLRKAKRARLCSSSSSDTSSRSFFDPTSQHRDWCPWVNITLGKESRENGGTEPDASAPAEPGWKAVLTILLAHKQSSQPAETDSMSLSEKSRKVFRIFRQWESLCSC [ZC3HC1] | 49.3 | 49.2 | 0.00532 | 0.508 | 1.84 | -0.163
MAAPDLSTNLQEEATCAICLDYFTDPVMTDCGHNFCRECIRRCWGQPEGPYACPECRELSPQRNLRPNRPLAKMAEMARRLHPPSPVPQGVCPAHREPLAAFCGDELRLLCAACERSGEHWAHRVRPLQDAAEDLKAKLEKSLEHLRKQMQDALLFQAQADETCVLWQKMVESQRQNVLGEFERLRRLLAEEEQQLLQRLEEEELEVLPRLREGAAHLGQQSAHLAELIAELEGRCQLPALGLLQDIKDALRRVQDVKLQPPEVVPMELRTVCRVPGLVETLRRFRGDVTLDPDTANPELILSEDRRSVQRGDLRQALPDSPERFDPGPCVLGQERFTSGRHYWEVEVGDRTSWALGVCRENVNRKEKGELSAGNGFWILVFLGSYYNSSERALAPLRDPPRRVGIFLDYEAGHLSFYSATDGSLLFIFPEIPFSGTLRPLFSPLSSSPTPMTICRPKGGSGDTLAPQ [TRIM11] | 50.8 | 49.4 | 0.185 | 0.605 | 0.584 | -0.192
MAAPEGSGLGEDARLDQETAQWLRWDKNSLTLEAVKRLIAEGNKEELRKCFGARMEFGTAGLRAAMGPGISRMNDLTIIQTTQGFCRYLEKQFSDLKQKGIVISFDARAHPSSGGSSRRFARLAATTFISQGIPVYLFSDITPTPFVPFTVSHLKLCAGIMITASHNPKQDNGYKVYWDNGAQIISPHDKGISQAIEENLEPWPQAWDDSLIDSSPLLHNPSASINNDYFEDLKKYCFHRSVNRETKVKFVHTSVHGVGHSFVQSAFKAFDLVPPEAVPEQKDPDPEFPTVKYPNPEEGKGVLTLSFALADKTKARIVLANDPDADRLAVAEKQDSGEWRVFSGNELGALLGWWLFTSWKEKNQDRSALKDTYMLSSTVSSKILRAIALKEGFHFEETLTGFKWMGNRAKQLIDQGKTVLFAFEEAIGYMCCPFVLDKDGVSAAVISAELASFLATKNLSLSQQLKAIYVEYGYHITKASYFICHDQETIKKLFENLRNYDGKNNYPKACGKFEISAIRDLTTGYDDSQPDKKAVLPTSKSSQMITFTFANGGVATMRTSGTEPKIKYYAELCAPPGNSDPEQLKKELNELVSAIEEHFFQPQKYNLQPKAD [PGM2] | 59.1 | 58.5 | 0.169 | -0.0187 | -1.07 | -0.112
MAAPKGSLWVRTQLGLPPLLLLTMALAGGSGTASAEAFDSVLGDTASCHRACQLTYPLHTYPKEEELYACQRGCRLFSICQFVDDGIDLNRTKLECESACTEAYSQSDEQYACHLGCQNQLPFAELRQEQLMSLMPKMHLLFPLTLVRSFWSDMMDSAQSFITSSWTFYLQADDGKIVIFQSKPEIQYAPHLEQEPTNLRESSLSKMSYLQMRNSQAHRNFLEDGESDGFLRCLSLNSGWILTTTLVLSVMVLLWICCATVATAVEQYVPSEKLSIYGDLEFMNEQKLNRYPASSLVVVRSKTEDHEEAGPLPTKVNLAHSEI [TMEM59] | 54.8 | 53.1 | 0.0662 | 0.0515 | -0.215 | 0.0194
